The source of these data is patent US20210155689A1 (SHANGHAI PHARMAEXPLORER, published 2021).

The target in assay [1] is T1, human LAG-3 ECD (antigen protein of the affinity test) (human, UniProt P18627 23-450).
T1 sequence: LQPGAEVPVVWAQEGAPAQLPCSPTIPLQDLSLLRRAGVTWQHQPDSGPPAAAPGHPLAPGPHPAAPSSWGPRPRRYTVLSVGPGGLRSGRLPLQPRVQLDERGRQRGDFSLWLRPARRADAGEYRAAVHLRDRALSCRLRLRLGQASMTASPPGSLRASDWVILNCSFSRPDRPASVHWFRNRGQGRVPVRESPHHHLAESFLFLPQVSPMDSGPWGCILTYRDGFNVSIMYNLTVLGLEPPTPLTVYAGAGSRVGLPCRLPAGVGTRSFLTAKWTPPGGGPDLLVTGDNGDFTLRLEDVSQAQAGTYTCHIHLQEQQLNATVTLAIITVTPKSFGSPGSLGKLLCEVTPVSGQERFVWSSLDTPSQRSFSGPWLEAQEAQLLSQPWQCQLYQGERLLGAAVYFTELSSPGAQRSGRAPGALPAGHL
As to the kind of experiment: SPR (CM5 chip), antibody captured by anti-human Fc IgG, antigen protein in flow, 1:1 model. As to the method: (§1) First, anti-human Fc IgG was immobilized on the surface of the CM5 chip to 6000-10000 RU by amino coupling method, with FC1 as the reference channel. The coupling process was as follows: a freshly prepared 1:1 mixture of 50 mM NHS and 200 mM EDC was activated for 7 minutes, then injected with 10-50 ug/ml anti-human Fc IgG diluted in 10 mM sodium acetate ph5.0 buffer. The remaining activated sites were blocked with 1M ethanolamine. Then, HBS-EP+ buffer was used to dilute the antibody to be tested to 5 ug/ml (adjustable according to the capture level) and the antibodies were captured on the chip at a flow rate of 10 ul/min to obtain a response value of about 100˜300 RU. Then the antigen protein was diluted to 100 nM (the highest concentration was tentatively 100 nM), and flew through the chip surface at a flow rate of 30 ul/min. If enough signal value was obtained, the antigen-protein was diluted by several concentration gradients, and flew through the chip surface respectively. At the end of each cycle, the chip surface was regenerated with 10 mM Glycine at pH 1.5. The kinetic rate constant needed to be subtracted from the blank control, and the data was fitted with the global fit analysis method 1:1 combination model. The dissociation equilibrium rate constant (KD) was calculated according to the following formula: KD=kd/ka.
The method was the same as that in Example 5.

For assay [2], the target named is T2, human LAG-3 on cells (HEK293-hLAG-3 stable cell line) (human, UniProt P18627 23-525).
T2 sequence: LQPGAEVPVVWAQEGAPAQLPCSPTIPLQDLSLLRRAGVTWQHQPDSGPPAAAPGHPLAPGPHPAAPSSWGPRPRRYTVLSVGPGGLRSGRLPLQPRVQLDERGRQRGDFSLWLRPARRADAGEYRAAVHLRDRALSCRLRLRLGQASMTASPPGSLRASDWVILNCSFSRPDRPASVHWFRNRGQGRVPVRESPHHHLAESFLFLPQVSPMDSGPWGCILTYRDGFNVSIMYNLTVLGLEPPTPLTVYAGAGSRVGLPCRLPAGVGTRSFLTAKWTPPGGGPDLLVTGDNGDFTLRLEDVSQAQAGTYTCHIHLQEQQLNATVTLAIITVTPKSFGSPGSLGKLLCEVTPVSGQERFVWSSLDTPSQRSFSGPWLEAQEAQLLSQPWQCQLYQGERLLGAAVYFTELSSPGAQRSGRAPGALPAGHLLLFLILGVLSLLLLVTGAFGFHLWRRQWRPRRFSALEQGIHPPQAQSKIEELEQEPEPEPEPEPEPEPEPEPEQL
Nature of the assay: FACS, HEK293-hLAG-3, antibody 0 nM.

Assay [3] has as its target T2, human LAG-3 on cells (HEK293-hLAG-3 …). As to the kind of experiment: FACS, HEK293-hLAG-3, antibody 8 nM.
The target is the same in assay [4]. Nature of the assay: FACS, HEK293-hLAG-3, antibody 40 nM.
For assay [5] the target is unchanged. Nature of the assay: FACS, HEK293-hLAG-3, antibody 1.6 nM.
Assay [6] shares this target. As to the kind of experiment: FACS, HEK293-hLAG-3, antibody 0.32 nM.
For assay [7] the target is unchanged. Nature of the assay: FACS, HEK293-hLAG-3, antibody 0.013 nM.
For assay [8] the target is unchanged. Nature of the assay: FACS, HEK293-hLAG-3, antibody 0.064 nM.
The target in assay [9] is T3, human LAG-3 ECD (antigen protein of the affinity test) (human, UniProt P18627 23-450).
T3 sequence: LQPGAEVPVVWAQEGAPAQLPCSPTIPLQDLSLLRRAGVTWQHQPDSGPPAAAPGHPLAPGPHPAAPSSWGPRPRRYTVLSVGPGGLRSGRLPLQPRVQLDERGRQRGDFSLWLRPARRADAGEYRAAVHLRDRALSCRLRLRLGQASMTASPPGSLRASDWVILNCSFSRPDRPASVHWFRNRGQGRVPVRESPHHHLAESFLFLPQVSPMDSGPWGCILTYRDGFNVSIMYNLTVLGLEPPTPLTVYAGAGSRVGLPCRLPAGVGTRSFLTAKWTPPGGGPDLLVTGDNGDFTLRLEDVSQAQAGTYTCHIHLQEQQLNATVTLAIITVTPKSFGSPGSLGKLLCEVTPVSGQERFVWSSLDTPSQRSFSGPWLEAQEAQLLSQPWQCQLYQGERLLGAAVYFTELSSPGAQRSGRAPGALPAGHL
Nature of the assay: SPR, CM5 chip, antibody captured by anti-human Fc IgG, antigen in flow, 1:1 fit. As to the method: as §1

B1: 405B8H3-1 (D→E) hot-spot mutated humanized antibody (antibody, V domains shown)
VH: QVQLVQSGAEVKKPGASVKVSCKASGYTFTDYEMHWVRQAPGQGLEWMGATDPETGNSAYNQKFKGRVTMTRDTSTSTVYMELSSLRSEDTAVYYCISTGWNDWGQGTTVTVSS
VL: DIQMTQSPSSLSASVGDRVTITCKASQDINSYLSWFQQKPGKAPKSLIYRADRLLEGVPSRFSGSGSGTDFTLTISSLQPEDFATYYCLQYDEFPYTFGQGTKLEIK
Turning to B1, in assay [1], the equilibrium dissociation constant (Kd) was determined as 2.03 nM, the off-rate (koff) came to 0.000158 s⁻¹ and the kon was found to be 77500 M⁻¹ s⁻¹.

B2: 556F6B8-3 (D→E) hot-spot mutated humanized antibody (antibody, V domains shown)
VH: QVQLQESGPGLVKPSETLSLTCTVSGFSLIKYGVHWIRQPPGKGLEWIGVIWRGGITDYNAAFMSRVTISKDTSKSQVSLKLSSVTAADTAVYYCARWEGPLAMDYWGQGTTVTVSS
VL: DIQLTQSPSFLSASVGDRVTITCKASQDVGTTVAWYQQKPGKAPKLLIYWASTRHTGVPSRFSGSGSGTEFTLTISSLQPEDFATYYCQQYSSYPYTFGQGTKLEIK
As to B2, in assay [1], the Kd turned out to be 33.5 nM, the koff was found to be 0.00384 s⁻¹ and the kon amounted to 115000 M⁻¹ s⁻¹.

B3: 556F6B8-3 humanized antibody (antibody, V domains shown)
VH: QVQLQESGPGLVKPSETLSLTCTVSGFSLIKYGVHWIRQPPGKGLEWIGVIWRGGITDYNAAFMSRVTISKDTSKSQVSLKLSSVTAADTAVYYCARWDGPLAMDYWGQGTTVTVSS
VL: DIQLTQSPSFLSASVGDRVTITCKASQDVGTTVAWYQQKPGKAPKLLIYWASTRHTGVPSRFSGSGSGTEFTLTISSLQPEDFATYYCQQYSSYPYTFGQGTKLEIK
Take B3: the Mean fluorescence intensity in assay [2] is 4; in assay [3], 94; in [4] it was 98; in [5], 83; in assay [6], 49; in assay [7] it was 10. The same molecule registered a Mean fluorescence intensity in assay [8] of 21. For the same molecule, the dissociation constant (Kd) in assay [9] was 3.31 nM. Besides, the off-rate (koff) in assay [9] was found to be 0.000465 s⁻¹. Also, the kon in [9] is 141000 M⁻¹ s⁻¹.

B4: 556F6B8-7 humanized antibody (antibody, V domains shown)
VH: QVQLQESGPGLVKPSETLSLTCTVSGFSLIKYGVHWIRQPPGKGLEWIGVIWRGGITDYNAAFMSRVTISKDTSKSQVSLKLSSVTAADTAVYYCARWDGPLAMDYWGQGTTVTVSS
VL: DIVLTQSPSFLSASVGDRVTITCKASQDVGTTVAWYQQKPGKAPKLLIYWASTRHTGVPSRFSGSGSGTEFTLTISSLQPEDFATYYCQQYSSYPYTFGQGTKLEIK
For the molecule B4, the Mean fluorescence intensity in assay [2] worked out at 4; in [3], 93; in [4] it was 98; in [5], 79; in [6] it was 44; in assay [7], 8. In assay [8], this molecule returned a Mean fluorescence intensity of 18. In assay [9], the Kd worked out at 3.25 nM. Moreover, in assay [9], the off-rate constant (koff) is 0.000453 s⁻¹. In addition, the association rate constant (kon) in assay [9] amounted to 139000 M⁻¹ s⁻¹.

B5: 556F6B8 mouse-human chimeric antibody (antibody, V domains shown)
VH: RVQLKQSGPGLVQPSQSLSITCTVSGFSLIKYGVHWVRQSPGEGLEWLGVIWRGGITDYNAAFMSRLSITKDNSKSQVFFKMNSLQADDTAIYYCAKWDGPLAMDYWGQGTSVTVSS
VL: DIVMTQSHKFLSTSVGDRVSITCKASQDVGTTVAWYQQKPGQSPKLLIYWASTRHTGVPDRFTGSGSGTDFTLTISNVQSEDLADYFCQQYSSYPYTFGGGTKLEIK
notes: also called mAb123-556F6B8
Regarding B5, in [1], the Kd worked out at 2.68 nM, the koff was 0.000433 s⁻¹ and the kon turned out to be 162000 M⁻¹ s⁻¹.

B6: 405B8H3 mouse-human chimeric antibody (antibody, V domains shown)
VH: QVQLQQSGAELVRPGASVTLSCKASGYTFTDYEMHWVKQTPVHGLEWIGATDPETGNSAYNQKFKGKAIMTADKSSSTAYMELRSLTSEDSAVYYCISTGWNDWGQGTSLTVSS
VL: DIKMTQSPSSMYASLGERVTITCKASQDINSYLSWFQQKPGKSPKTLIYRADRLLDGVPSRFSGSGSGQDYSLTISSLEYGDMGIYYCLQYDEFPYTFGGGTKLEIK
notes: also called mAb103-405B8H3
As for B6, in [1], the Kd was found to be 3.11 nM, the dissociation rate constant (koff) worked out at 0.000164 s⁻¹ and the kon stood at 52800 M⁻¹ s⁻¹.
